Data taken from patent publication EP4745153A1, “GLP-1, GIP AND GCG RECEPTOR […] USE THEREOF” (Jiangsu Hengrui Pharmaceuticals Co., Ltd., priority 2023, dated 2025).
Read-outs that look alike come from different tables or passages of the source. Starred links: 1 amine or outer side, 2 acyl side, 3 side chain; linkers in the order of their positions; H or OH if unused. Non-standard residues stand in square brackets, D forms with d. Residues, ends and D or L forms follow the SMILES beside them. Groups on a side chain read outwards from the residue. No end group written: not given here. *: point of attachment. C20 diacid = O=C(O)CCCCCCCCCCCCCCCCCCC(=O)*; γGlu = O=C(O)[C@H](CCC(=O)[*:2])N[*:1]; αMeL = CC(C)C[C@](C)(N)C(=O)O; αMeK = C[C@](N)(CCCCN)C(=O)O; αMeS = C[C@](N)(CO)C(=O)O; AEEA = NCCOCCOCC(=O)O; Aib = CC(C)(N)C(=O)O

Key:
[1] = Solubility in the vehicle; type: physicochemical; conditions: stated in the summary only, no test example
human GIPR = target: T1, human GIPR (Homo sapiens, UniProt P48546); test: cAMP HTRF agonist activity assay in CHO-K1 cells expressing GIPR; type: cell-based
T1 construct: expressed in transfected cells; host or cells: CHO-K1 clonal cell line
T1 sequence (P48546 22-466): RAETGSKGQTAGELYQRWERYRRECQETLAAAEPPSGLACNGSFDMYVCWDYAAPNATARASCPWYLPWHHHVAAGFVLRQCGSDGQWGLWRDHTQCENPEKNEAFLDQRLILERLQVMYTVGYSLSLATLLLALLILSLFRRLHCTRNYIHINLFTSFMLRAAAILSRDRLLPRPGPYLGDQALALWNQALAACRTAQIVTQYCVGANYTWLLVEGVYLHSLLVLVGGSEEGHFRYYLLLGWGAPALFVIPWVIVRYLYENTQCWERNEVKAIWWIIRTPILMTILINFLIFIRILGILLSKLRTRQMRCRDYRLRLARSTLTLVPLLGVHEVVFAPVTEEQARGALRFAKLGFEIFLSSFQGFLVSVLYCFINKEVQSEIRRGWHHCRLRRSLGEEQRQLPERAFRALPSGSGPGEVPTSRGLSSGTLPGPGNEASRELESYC
Summary of the method: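 Clonal CHO-K1 lines, 5000 cells/well, exposed to polypeptides for 30 min at 37°C. Intracellular cAMP read by HTRF (cAMP-d2 conjugate plus anti-cAMP-Eu cryptate in lysis buffer). Relative EC50 from four-parameter nonlinear fit of percent maximum response against concentration.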

[2] = Pharmacokinetics in mice after single intravenous injection; set-up: species or system C57 mice; conditions: mouse, in vivo, male C57 mice, single intravenous dose 200 nmol/kg, plasma
Summary of the method: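 Male C57 mice (~25 g, 4-6 weeks, n=3) received a single i.v. dose of 200 nmol/kg in 1×PBS. Plasma collected from 5 min to 72 h was methanol-precipitated with verapamil internal standard and quantified by LC-MS (ESI positive, MRM); PK parameters were calculated by PKSolver.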

[3] = target: human glucagon-like peptide-1 receptor (human, UniProt P43220 24-463); test: cell-based or functional assay
[4] = target: T2, human glucose-dependent insulinotropic polypeptide receptor (human, UniProt P48546 22-466); test: cell-based or functional assay
T2 sequence (looked up): T1 sequence (P48546 22-466)

human glucagon receptor [5] = target: T3, human glucagon receptor (human, UniProt P47871 26-477); test: cell-based or functional assay
[6] = target: T2, human glucose-dependent insulinotropic …; test: cell-based or functional assay; remark: listed apart in the source
human glucagon receptor [7] = target: T3, human glucagon receptor; test: cell-based or functional assay; remark: listed apart in the source

T3 sequence (P47871 26-477): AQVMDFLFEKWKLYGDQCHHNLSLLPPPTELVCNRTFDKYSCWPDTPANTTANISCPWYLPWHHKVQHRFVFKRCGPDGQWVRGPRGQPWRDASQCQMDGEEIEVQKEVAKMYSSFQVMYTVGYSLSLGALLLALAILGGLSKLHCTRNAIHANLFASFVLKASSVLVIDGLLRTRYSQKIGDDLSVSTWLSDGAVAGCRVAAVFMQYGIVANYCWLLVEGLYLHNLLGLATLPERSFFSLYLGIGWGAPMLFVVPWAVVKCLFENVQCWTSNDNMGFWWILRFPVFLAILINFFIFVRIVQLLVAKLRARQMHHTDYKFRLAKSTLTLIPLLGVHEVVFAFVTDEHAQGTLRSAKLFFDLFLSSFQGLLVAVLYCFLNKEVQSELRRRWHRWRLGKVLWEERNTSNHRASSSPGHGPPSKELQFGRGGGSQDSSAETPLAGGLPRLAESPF

## CC[C@H](C)[C@H](NC(=O)[C@H](CC(C)C)NC(=O)[C@H](Cc1c[nH]c2ccccc12)NC(=O)[C@H](CCC(=O)O)NC(=O)[C@@H](NC(=O)[C@H](Cc1ccccc1)NC(=O)[C@H](CCC(=O)O)NC(=O)[C@](C)(CO)NC(=O)[C@H](C)NC(=O)[C@H](C)NC(=O)[C@H](CCCCN)NC(=O)[C@H](CCCCNC(=O)COCCOCCNC(=O)COCCOCCNC(=O)CC[C@H](NC(=O)CCCCCCCCCCCCCCCCCCC(=O)O)C(=O)O)NC(=O)[C@H](CCC(=O)O)NC(=O)[C@H](CC(C)C)NC(=O)[C@H](CC(C)C)NC(=O)[C@](C)(CCCCN)NC(=O)[C@H](CO)NC(=O)[C@H](Cc1ccc(O)cc1)NC(=O)[C@H](CC(=O)O)NC(=O)[C@H](CO)NC(=O)[C@@H](NC(=O)[C@H](Cc1ccccc1)NC(=O)[C@@H](NC(=O)CNC(=O)[C@H](Cc1c[nH]cn1)NC(=O)C(C)(C)NC(=O)[C@@H](N)Cc1c[nH]cn1)[C@@H](C)O)[C@@H](C)O)C(C)C)C(=O)N[C@@H](CCC(=O)O)C(=O)NCC(=O)NCC(=O)N1CCC[C@H]1C(=O)N[C@@H](CO)C(=O)N[C@@H](CO)C(=O)NCC(=O)N[C@@H](C)C(=O)N1CCC[C@H]1C(=O)N1CCC[C@H]1C(=O)N1CCC[C@H]1C(=O)N[C@@H](CO)C(N)=O [Compound 0126] (H-H[Aib]HGTFTSDYS[αMeK]LLEK([AEEA-AEEA-γGlu-C20 diacid])KAA[αMeS]EFVEWLIEGGPSSGAPPPS-NH2)
[1]
  solubility in the vehicle: ≥ 20 mg/mL
Human GIPR
  EC50: 0.002 nM
[2]
  AUC(0-inf): 103 µM·h
  C0: 7.17 µM
[2]; read-out: CLp
  clearance: 1.98 mL/h/kg
[2]; read-out: T1/2 (converted)
  half-life: 10.1 h

B1: Compound No. 0119 (peptide)
peptide: H[Aib]HGTFTSDYS[αMeK]ILEK([AEEA-AEEA-γGlu-C20 diacid])KAAQEFVEWLLAGGPSSGAPPPS-NH2
modifications: N-terminus assumed
SMILES: CC[C@H](C)[C@H](NC(=O)[C@](C)(CCCCN)NC(=O)[C@H](CO)NC(=O)[C@H](Cc1ccc(O)cc1)NC(=O)[C@H](CC(=O)O)NC(=O)[C@H](CO)NC(=O)[C@@H](NC(=O)[C@H](Cc1ccccc1)NC(=O)[C@@H](NC(=O)CNC(=O)[C@H](Cc1c[nH]cn1)NC(=O)C(C)(C)NC(=O)[C@@H](N)Cc1c[nH]cn1)[C@@H](C)O)[C@@H](C)O)C(=O)N[C@@H](CC(C)C)C(=O)N[C@@H](CCC(=O)O)C(=O)N[C@@H](CCCCNC(=O)COCCOCCNC(=O)COCCOCCNC(=O)CC[C@H](NC(=O)CCCCCCCCCCCCCCCCCCC(=O)O)C(=O)O)C(=O)N[C@@H](CCCCN)C(=O)N[C@@H](C)C(=O)N[C@@H](C)C(=O)N[C@@H](CCC(N)=O)C(=O)N[C@@H](CCC(=O)O)C(=O)N[C@@H](Cc1ccccc1)C(=O)N[C@H](C(=O)N[C@@H](CCC(=O)O)C(=O)N[C@@H](Cc1c[nH]c2ccccc12)C(=O)N[C@@H](CC(C)C)C(=O)N[C@@H](CC(C)C)C(=O)N[C@@H](C)C(=O)NCC(=O)NCC(=O)N1CCC[C@H]1C(=O)N[C@@H](CO)C(=O)N[C@@H](CO)C(=O)NCC(=O)N[C@@H](C)C(=O)N1CCC[C@H]1C(=O)N1CCC[C@H]1C(=O)N1CCC[C@H]1C(=O)N[C@@H](CO)C(N)=O)C(C)C
[3]
  Activity against human GLP-1R (EC50 nM): 0.023 nM
[4]
  Activity against human GIPR (EC50 nM): 0.005 nM
Human glucagon receptor [5]
  Activity against human GCGR (EC50 nM): 0.087 nM

B2: Compound No. 0120 (peptide)
peptide: H[Aib]HGTFTSDYSILLEK([AEEA-AEEA-γGlu-C20 diacid])KAAQEFVEWLLAGGPSSGAPPPS-NH2
modifications: N-terminus assumed
SMILES: CC[C@H](C)[C@H](NC(=O)[C@H](CO)NC(=O)[C@H](Cc1ccc(O)cc1)NC(=O)[C@H](CC(=O)O)NC(=O)[C@H](CO)NC(=O)[C@@H](NC(=O)[C@H](Cc1ccccc1)NC(=O)[C@@H](NC(=O)CNC(=O)[C@H](Cc1c[nH]cn1)NC(=O)C(C)(C)NC(=O)[C@@H](N)Cc1c[nH]cn1)[C@@H](C)O)[C@@H](C)O)C(=O)N[C@@H](CC(C)C)C(=O)N[C@@H](CC(C)C)C(=O)N[C@@H](CCC(=O)O)C(=O)N[C@@H](CCCCNC(=O)COCCOCCNC(=O)COCCOCCNC(=O)CC[C@H](NC(=O)CCCCCCCCCCCCCCCCCCC(=O)O)C(=O)O)C(=O)N[C@@H](CCCCN)C(=O)N[C@@H](C)C(=O)N[C@@H](C)C(=O)N[C@@H](CCC(N)=O)C(=O)N[C@@H](CCC(=O)O)C(=O)N[C@@H](Cc1ccccc1)C(=O)N[C@H](C(=O)N[C@@H](CCC(=O)O)C(=O)N[C@@H](Cc1c[nH]c2ccccc12)C(=O)N[C@@H](CC(C)C)C(=O)N[C@@H](CC(C)C)C(=O)N[C@@H](C)C(=O)NCC(=O)NCC(=O)N1CCC[C@H]1C(=O)N[C@@H](CO)C(=O)N[C@@H](CO)C(=O)NCC(=O)N[C@@H](C)C(=O)N1CCC[C@H]1C(=O)N1CCC[C@H]1C(=O)N1CCC[C@H]1C(=O)N[C@@H](CO)C(N)=O)C(C)C
[3]
  Activity against human GLP-1R (EC50 nM): 0.026 nM
[4]
  Activity against human GIPR (EC50 nM): 0.002 nM
Human glucagon receptor [5]
  Activity against human GCGR (EC50 nM): 0.121 nM

B3: Compound No. 0125 (peptide)
peptide: H[Aib]HGTFTSDYSI[αMeL]LEK([AEEA-AEEA-γGlu-C20 diacid])KAAQEFVEWLLAGGPSSGAPPPS-NH2
modifications: N-terminus assumed
SMILES: CC[C@H](C)[C@H](NC(=O)[C@H](CO)NC(=O)[C@H](Cc1ccc(O)cc1)NC(=O)[C@H](CC(=O)O)NC(=O)[C@H](CO)NC(=O)[C@@H](NC(=O)[C@H](Cc1ccccc1)NC(=O)[C@@H](NC(=O)CNC(=O)[C@H](Cc1c[nH]cn1)NC(=O)C(C)(C)NC(=O)[C@@H](N)Cc1c[nH]cn1)[C@@H](C)O)[C@@H](C)O)C(=O)N[C@@](C)(CC(C)C)C(=O)N[C@@H](CC(C)C)C(=O)N[C@@H](CCC(=O)O)C(=O)N[C@@H](CCCCNC(=O)COCCOCCNC(=O)COCCOCCNC(=O)CC[C@H](NC(=O)CCCCCCCCCCCCCCCCCCC(=O)O)C(=O)O)C(=O)N[C@@H](CCCCN)C(=O)N[C@@H](C)C(=O)N[C@@H](C)C(=O)N[C@@H](CCC(N)=O)C(=O)N[C@@H](CCC(=O)O)C(=O)N[C@@H](Cc1ccccc1)C(=O)N[C@H](C(=O)N[C@@H](CCC(=O)O)C(=O)N[C@@H](Cc1c[nH]c2ccccc12)C(=O)N[C@@H](CC(C)C)C(=O)N[C@@H](CC(C)C)C(=O)N[C@@H](C)C(=O)NCC(=O)NCC(=O)N1CCC[C@H]1C(=O)N[C@@H](CO)C(=O)N[C@@H](CO)C(=O)NCC(=O)N[C@@H](C)C(=O)N1CCC[C@H]1C(=O)N1CCC[C@H]1C(=O)N1CCC[C@H]1C(=O)N[C@@H](CO)C(N)=O)C(C)C
[6]
  Activity against human GIPR (EC50 nM): 0.002 nM
Human glucagon receptor [7]
  Activity against human GCGR (EC50 nM): 0.071 nM
